Experimental findings from publication PMC8131606 are described below.

The target of test [1] is F1 (F228A) opsin (bovine) (UniProt P02699).
The target of test [2] is F2 (F221A, F228A) opsin (bovine) (UniProt P02699).
Test [3] addresses F3 (F220C, F221A, F228A) opsin (bovine) (UniProt P02699).
For test [4], the target named is WT opsin (thermostable bovine opsin with C-terminal 3X-FLAG tag) (bovine) (UniProt P02699).

For the substance “F1 (F228A) opsin (from UniProt P02699 1-348) (receptor)”, the ratio of mono-exponential fit constants α(construct)/αWT from scramblase-based analysis of reconstitution into vesicles in test [1] was 1.
With “F2 (F221A, F228A) opsin (from UniProt P02699 1-348) (receptor)”, the ratio of mono-exponential fit constants α(construct)/αWT from scramblase-based analysis of reconstitution into vesicles in test [2] turned out to be 1.
Consider “F3 (F220C, F221A, F228A) opsin (from UniProt P02699 1-348) (receptor)”, for which the ratio of mono-exponential fit constants αF3/αWT from scramblase-based analysis of reconstitution into vesicles in test [3] worked out at 0.4.
In the case of “WT opsin (thermostable bovine opsin with C-terminal 3X-FLAG tag) (from UniProt P02699 1-348) (receptor)”, in test [4], the mono-exponential fit constant (α) of p(≥ 1) scramblase versus PPR* after reconstitution of purified opsin into vesicles was found to be 0.25.
